The record followed here is patent US20140187616A1.

This test has as its target Drosophila olf186-F-RB (Drosophila) (UniProt Q9U6B8). As to the kind of experiment: cell-based or functional assay.
UniProt Q9U6B8, sequence (Q9U6B8 whole entry): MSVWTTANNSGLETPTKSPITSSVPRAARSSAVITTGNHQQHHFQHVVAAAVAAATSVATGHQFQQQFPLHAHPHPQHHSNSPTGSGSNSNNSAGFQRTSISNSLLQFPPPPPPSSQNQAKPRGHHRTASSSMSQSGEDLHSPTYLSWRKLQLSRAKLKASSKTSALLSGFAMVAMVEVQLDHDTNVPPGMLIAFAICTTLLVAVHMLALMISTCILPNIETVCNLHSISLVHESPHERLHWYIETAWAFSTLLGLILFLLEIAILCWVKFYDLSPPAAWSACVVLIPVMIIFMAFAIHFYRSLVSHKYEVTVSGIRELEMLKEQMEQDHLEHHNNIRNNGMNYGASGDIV

Substance “Drosophila Stim (from UniProt P83094 24-570)” registered a CRAC current density (whole-cell patch clamp, cotransfected S2 cells) of 8 fold.
